B4: mCD137-mFc-Avi (Fc fusion)
chain: VQNSCDNCQPGTFCRKYNPVCKSCPPSTFSSIGGQPNCNICRVCAGYFRFKKFCSSTHNAECECIEGFHCLGPQCTRCEKDCRPGQELTKQGCKTCSLGTFNDQNGTGVCRPWTNCSLDGRSVLKTGTTEKDVVCGPPVVSFSPSTTISVTPEGGPGGHSLQVL
notes: also called mouse CD137-mFc-Avi; mouse dimeric CD137; not shown: mouse IgG2a Fc domain (mIgG2a Fc)

How the values were obtained:
[1] = biological target: T1, mouse CD137, cell-surface (mouse, UniProt P20334 24-256); experiment: cell-based or functional assay
[2] = biological target: mouse CD40 (R&D Systems, biotinylated) (mouse, UniProt P27512 24-193, limits assumed, biotinylated); experiment: BLI (Octet), biotinylated receptor on streptavidin sensors
Method: (§1) The specificity of the anti-mouse CD137 Fcabs for mouse CD137 was tested in HeID1.3 “mock” mAb² format and measured by BLI in an Octet QKe system by testing for binding of the Fcabs to other mouse TNFRSF receptors (CD40, OX40, GITR). […] Anti-mouse CD137 Fcabs in mock mAb² format were diluted 1:1 in kinetic buffer (PALL 18-1092) to a final concentration of at least 1 μM. Antigen-coated sensors were dipped into the mAb² solutions for 180 seconds followed by 180 seconds in 1×kinetic buffer. Antibodies for each of the TNFRSF receptors were used as positive controls.

[3] = biological target: T2, mouse GITR (R&D Systems, biotinylated) (mouse, UniProt O35714 22-153, limits assumed, biotinylated); experiment: as above
T2 sequence (looked up): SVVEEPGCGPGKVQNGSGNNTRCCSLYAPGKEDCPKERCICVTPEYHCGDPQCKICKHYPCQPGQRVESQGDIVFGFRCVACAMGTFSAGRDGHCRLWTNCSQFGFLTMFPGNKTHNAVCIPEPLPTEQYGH
Method: as §1

[4] = biological target: T1, mouse CD137, cell-surface; experiment: cell-based or functional assay; remark: listed apart in the source
[5] = biological target: B4; experiment: SPR (Biacore T200)
[6] = biological target: T3, human OX40 (human, UniProt P43489 29-216); experiment: SPR, receptor amine-coupled to CM5 (~1000 RU)
T3 sequence (looked up): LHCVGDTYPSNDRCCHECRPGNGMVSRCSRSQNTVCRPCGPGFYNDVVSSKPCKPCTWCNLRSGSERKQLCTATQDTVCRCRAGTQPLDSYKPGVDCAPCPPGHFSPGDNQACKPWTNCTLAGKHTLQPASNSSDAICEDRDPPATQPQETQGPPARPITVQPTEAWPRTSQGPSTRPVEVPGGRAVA
Method: (§2) The specificity of the anti-human CD137 Fcabs for human CD137 compared to other related TNFSFR family members was tested. 8 of the Fcabs were tested in mock mAb² (HeID1.3) format and measured by SPR in a Biacore T200 (GE Healthcare) by testing for binding to other human TNFRSF receptors: CD40, OX40 and GITR. Amine coupling (amine coupling kit, GE Healthcare, BR-1000-50) was used to coat human CD40, GITR and OX40 to approximately 1000 RU in Biacore CM5 chips (GE Healthcare, cat no 29149603). […] The chip was regenerated by injection of 10 mM glycine pH 2.5 for 12 s at 30 μl/min. Antibodies specific to the different TNFRSF members were used as positive controls to verify Biacore chip coating. Data was double reference subtracted and analysed using BIAevaluation 3.2 software.

[7] = biological target: human CD40 (human, UniProt P25942 21-193, limits assumed); experiment: SPR, receptor amine-coupled to CM5 (~1000 RU)
Method: as §2

[8] = biological target: T4, human GITR (human, UniProt Q9Y5U5 26-161, limits assumed); experiment: SPR, receptor amine-coupled to CM5 (~1000 RU)
T4 sequence (looked up): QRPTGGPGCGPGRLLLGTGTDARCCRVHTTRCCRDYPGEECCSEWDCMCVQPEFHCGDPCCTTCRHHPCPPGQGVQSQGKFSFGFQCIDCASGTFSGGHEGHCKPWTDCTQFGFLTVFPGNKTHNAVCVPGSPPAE
Method: as §2

[9] = biological target: B4; experiment: SPR, mAb^2 captured by anti-human Fab, antigen in flow, 1:1 Langmuir fit
Method: (§3) An anti-human Fab capture antibody was immobilised on all four flow cells of a CM5 series S chip (GE Healthcare #BR-1005-30) to an average surface density of 6000 RU following the manufacturer's recommendations (GE Healthcare, human Fab capture Kit, #28958325). […] Each mAb² was captured to approximately 150 RU by injecting a 3 μg/ml solution of mAb² diluted in HBS-EP+ buffer (GE Healthcare #BR1006-69) for 60 seconds at 30 μl/min. Then different concentrations of human, cyno or mouse CD137 antigen (unbiotinylated human, cyno or mouse CD137-mFc-Avi or human CD137-Avi-His) in HBS-EP+ buffer were flowed over the chip for 3 min at 60 μl/min and then allowed to dissociate for 10 minutes. After each antigen concentration the chip was regenerated by infecting 10 mM glycine pH 2.1 at a flow rate of 30 μl/min for 30 seconds. Buffer HBS-EP+ was injected before the highest concentration of antigen and after the lowest concentration of antigen for reference subtraction, and one of the concentrations at random was repeated twice. The binding kinetics were fit with a 1:1 Langmuir model to generate equilibrium binding constants (KD) for each sample. Data analysis was performed with BiaEvaluation software version 3.2.

[10] = biological target: T5, hCD137-mFc-Avi (human; mouse, UniProt Q07011 24-186, biotin on the Avi sequence where the biotinylated form was used); experiment: as above
T5 construct: also called human CD137-mFc-Avi; dimeric human CD137; not shown: mouse IgG2a Fc domain (mIgG2a Fc)
Method: as §3

[11] = biological target: T6, hCD137-Avi-His (human, UniProt Q07011 24-186); experiment: as above
T6 construct: also called human CD137-Avi-His; monomeric human CD137
Method: as §3

[12] = biological target: T7, cCD137-mFc-Avi (cynomolgus; mouse); experiment: as above
T7 construct: also called cynomolgus CD137-mFc-Avi; Cyno CD137-mFc-Avi; not shown: mouse IgG2a Fc domain (mIgG2a Fc)
T7 chain: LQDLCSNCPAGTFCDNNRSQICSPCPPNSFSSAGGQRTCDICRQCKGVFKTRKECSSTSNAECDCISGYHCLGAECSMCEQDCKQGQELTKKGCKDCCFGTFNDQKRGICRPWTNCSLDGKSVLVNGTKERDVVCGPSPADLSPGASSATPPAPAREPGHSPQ
Method: as §3

[13] = biological target: T8, mouse CD137 ligand on DO11.10 cells (mouse, UniProt P41274 1-309); experiment: flow cytometry, anti mouse Fc detection
T8 construct: whole, on cells
T8 sequence (looked up): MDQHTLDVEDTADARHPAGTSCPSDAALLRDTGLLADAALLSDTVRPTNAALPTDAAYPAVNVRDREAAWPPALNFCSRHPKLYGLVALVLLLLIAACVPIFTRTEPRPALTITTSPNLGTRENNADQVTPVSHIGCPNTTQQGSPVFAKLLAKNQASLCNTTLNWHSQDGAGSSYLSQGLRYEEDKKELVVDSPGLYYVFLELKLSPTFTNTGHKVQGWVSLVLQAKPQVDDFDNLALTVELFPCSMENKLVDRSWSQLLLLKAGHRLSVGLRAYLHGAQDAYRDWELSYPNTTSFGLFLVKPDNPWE
Method: In more detail, materials from the same production lot were mixed together and analysed for stability and purity by size-exclusion high-performance liquid chromatography (SE-HPLC), SDS polyacrylamide gel electrophoresis (SDS-PAGE), and size-exclusion chromatography with multi-angle light scattering (SEC-MALS). […] Cells were incubated with the CD137 antigens for 1 hour, and then a fluorescently-labelled anti mouse Fc fragment antibody was used to detect cell binding.

T5 sequence (Q07011 24-186): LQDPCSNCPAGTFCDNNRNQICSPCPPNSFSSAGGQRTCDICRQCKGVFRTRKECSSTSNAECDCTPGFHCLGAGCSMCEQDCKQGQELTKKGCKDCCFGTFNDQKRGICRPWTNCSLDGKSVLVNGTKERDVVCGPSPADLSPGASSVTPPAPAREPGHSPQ
T6 sequence (Q07011 24-186): as above
human CD40, sequence (P25942 21-193 limits assumed): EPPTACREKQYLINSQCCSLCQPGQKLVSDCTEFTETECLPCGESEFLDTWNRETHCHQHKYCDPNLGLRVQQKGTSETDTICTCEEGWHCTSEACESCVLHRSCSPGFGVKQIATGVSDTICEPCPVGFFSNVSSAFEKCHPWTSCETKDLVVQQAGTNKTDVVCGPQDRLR
mouse CD40 (R&D Systems, biotinylated), sequence (P27512 24-193 limits assumed): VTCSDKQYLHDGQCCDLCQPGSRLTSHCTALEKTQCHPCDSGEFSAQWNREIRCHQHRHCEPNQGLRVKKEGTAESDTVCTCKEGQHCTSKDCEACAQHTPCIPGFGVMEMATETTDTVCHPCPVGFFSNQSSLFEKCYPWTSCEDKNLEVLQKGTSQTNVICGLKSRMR

B1: FS22m-063 in HeID1.3 mock mAb^2 format (bispecific antibody)
heavy: QVQLQESGPGLVRPSQTLSLTCTVSGSTFSGYGVNWVRQPPGRGLEWIGMIWGDGNTDYNSALKSRVTMLVDTSKNQFSLRLSSVTAADTAVYYCARERDYRLDYWGQGSLVTVSSASTKGPSVFPLAPSSKSTSGGTAALGCLVKDYFPEPVTVSWNSGALTSGVHTFPAVLQSSGLYSLSSVVTVPSSSLGTQTYICNVNHKPSNTKVDKKVEPKSCDKTHTCPPCPAPELLGGPSVFLFPPKPKDTLMISRTPEVTCVVVDVSHEDPEVKFNWYVDGVEVHNAKTKPREEQYNSTYRVVSVLTVLHQDWLNGKEYKCKVSNKALPAPIEKTISKAKGQPREPQVYTLPPSRDEPYWSYVSLTCLVKGFYPSDIAVEWESNGQPENNYKTTPPVLDSDGSFFLYSKLTVMNYRWELGNVFSCSVMHEALHNHYTQKSLSLSPG
light: DIQMTQSPASLSASVGETVTITCRASGNIHNYLAWYQQKQGKSPQLLVYNAKTLADGVPSRFSGSGSGTQYSLKINSLQPEDFGSYYCQHFWSTPRTFGGGTKLEIKRTVAAPSVFIFPPSDEQLKSGTASVVCLLNNFYPREAKVQWKVDNALQSGNSQESVTEQDSKDSTYSLSSTLTLSKADYEKHKVYACEVTHQGLSSPVTKSFNRGEC
notes: anti-mouse CD137 Fcab
Question: With B1 as the binder, how does the “+XL EC50 (nM), mouse CD137 DO11.10 T cell activation assay” value [1] read?
Answer: Its value is 0.39 nM.

Question: What about the “+XL Emax (IL-2 pg/ml), mouse CD137 DO11.10 T cell activation assay” value [1] of the same binder?
Answer: Its value is 24200 pg/mL.

Question: Does B1 bind [2]?
Answer: Result: no binding (tested: at least 1 µM)

Question: Does B1 bind [3]?
Answer: Result: no binding (tested: at least 1 µM)

Question: What about the “EC50 upon Protein L crosslinking, NF-κB luciferase assay (HEK.FRT.luc.mCD137)” value [4] of the same binder?
Answer: The value was 1.44 nM.

Question: What about the “fold-change in activity upon crosslinking, NF-κB luciferase assay (HEK.FRT.luc.mCD137)” value [4] of the same binder?
Answer: Its value is 27 fold.

B2: FS22-053-017 in HeID1.3 mock mAb^2 format (bispecific antibody)
heavy: QVQLQESGPGLVRPSQTLSLTCTVSGSTFSGYGVNWVRQPPGRGLEWIGMIWGDGNTDYNSALKSRVTMLVDTSKNQFSLRLSSVTAADTAVYYCARERDYRLDYWGQGSLVTVSSASTKGPSVFPLAPSSKSTSGGTAALGCLVKDYFPEPVTVSWNSGALTSGVHTFPAVLQSSGLYSLSSVVTVPSSSLGTQTYICNVNHKPSNTKVDKKVEPKSCDKTHTCPPCPAPELLGGPSVFLFPPKPKDTLMISRTPEVTCVVVDVSHEDPEVKFNWYVDGVEVHNAKTKPREEQYNSTYRVVSVLTVLHQDWLNGKEYKCKVSNKALPAPIEKTISKAKGQPREPQVYTLPPSRDELNPPYLFSNQVSLTCLVKGFYPSDIAVEWESNGQPENNYKTTPPVLDSDGSFFLYSKLTVYHWRWLEGNVFSCSVMHEALHNHYTQKSLSLSPG
light: DIQMTQSPASLSASVGETVTITCRASGNIHNYLAWYQQKQGKSPQLLVYNAKTLADGVPSRFSGSGSGTQYSLKINSLQPEDFGSYYCQHFWSTPRTFGGGTKLEIKRTVAAPSVFIFPPSDEQLKSGTASVVCLLNNFYPREAKVQWKVDNALQSGNSQESVTEQDSKDSTYSLSSTLTLSKADYEKHKVYACEVTHQGLSSPVTKSFNRGEC
notes: FS22-053-014 with D98E (IMGT, CH3); range 1-339 derived by counting; also called FS22-053-17
Question: B2 was tested. Which “+XL EC50 (nM), mouse CD137 DO11.10 T cell activation assay” value [1] did it give?
Answer: Its value is 16.7 nM.

Question: What about the “+XL Emax (IL-2 pg/ml), mouse CD137 DO11.10 T cell activation assay” value [1] of the same binder?
Answer: The value was 41000 pg/mL.

Question: And the “fold decrease in binding strength against FS22-053-014” value [5]?
Answer: The value was 2 fold.

B3: FS22-053-014/HeID1.3 (bispecific antibody, human IgG1, kappa)
heavy: QVQLQESGPGLVRPSQTLSLTCTVSGSTFSGYGVNWVRQPPGRGLEWIGMIWGDGNTDYNSALKSRVTMLVDTSKNQFSLRLSSVTAADTAVYYCARERDYRLDYWGQGSLVTVSSASTKGPSVFPLAPSSKSTSGGTAALGCLVKDYFPEPVTVSWNSGALTSGVHTFPAVLQSSGLYSLSSVVTVPSSSLGTQTYICNVNHKPSNTKVDKKVEPKSCDKTHTCPPCPAPELLGGPSVFLFPPKPKDTLMISRTPEVTCVVVDVSHEDPEVKFNWYVDGVEVHNAKTKPREEQYNSTYRVVSVLTVLHQDWLNGKEYKCKVSNKALPAPIEKTISKAKGQPREPQVYTLPPSRDELNPPYLFSNQVSLTCLVKGFYPSDIAVEWESNGQPENNYKTTPPVLDSDGSFFLYSKLTVYHWRWLDGNVFSCSVMHEALHNHYTQKSLSLSPG
light: DIQMTQSPASLSASVGETVTITCRASGNIHNYLAWYQQKQGKSPQLLVYNAKTLADGVPSRFSGSGSGTQYSLKINSLQPEDFGSYYCQHFWSTPRTFGGGTKLEIKRTVAAPSVFIFPPSDEQLKSGTASVVCLLNNFYPREAKVQWKVDNALQSGNSQESVTEQDSKDSTYSLSSTLTLSKADYEKHKVYACEVTHQGLSSPVTKSFNRGEC
notes: mock mAb^2; also called FS22-053-014 (mock mAb^2 format); FS22-053-14
Question: What does the source list for B3?
Answer: +XL EC50 (nM), mouse CD137 DO11.10 T cell activation assay [1]: 2.04 nM; +XL Emax (IL-2 pg/ml), mouse CD137 DO11.10 T cell activation assay [1]: 28100 pg/mL; binding result [6]: no binding (tested: 1 µM); binding result [7]: no binding (tested: 1 µM); binding result [8]: no binding (tested: 1 µM); Kd [9]: 24 nM; Kd [10]: 3.2 nM; Human monomeric CD137 KD fold difference relative to human dimeric KD [11]: 100 fold; Kd [12]: 0.9 nM

Question: Does B4 bind [13]?
Answer: Result: binds

Reference: patent publication US20250346679A1 (INVOX PHARMA, published 2025)
